In publication PMC10164576, “Interaction with the carboxy-terminal tip of SSB is critical for RecG function in E. coli” (Nucleic Acids Research, 2023):
Numbering of substitutions follows the chain as printed. Numbers in names are those of the source. Read-outs that look alike come from different tables or passages of the source. Where a SMILES comes first, the peptide text is derived from it. Where no end group is shown, it is not given here. The star is where a group is joined. 6FAM = O=C1OC2(c3ccc(O)cc3Oc3cc(O)ccc32)c2cc(C(=O)*)ccc21

Tests used:
[1] = molecular target: T1, RecG (WT) (Escherichia coli, UniProt P24230); assay: Fluorescence anisotropy binding of 6-FAM-labelled SSB peptides to wildtype RecG; design: species or system E. coli
T1 construct: RecG was expressed in STL2669/pT7pol26 (a gift from Dr Susan Lovett, Brandeis University) with overexpression plasmid pEAW111; made in house; host or cells: E. coli STL2669/pT7pol26
Protocol: SSB peptides (sequences listed in Figure 2) were designed with an N-terminal tryptophan residue for quantification and N-terminal 6-FAM label (Genscript). RecG was incubated with 0.2 M potassium glutamate, 1 mM DTT, 0.1 μg/ml BSA, 1 × RecA buffer (25 mM Tris-acetate, pH 7.6, 5% w/v glycerol, 3 mM potassium glutamate, 10 mM magnesium acetate, 1 mM DTT), and 10 nM labeled peptide at room temperature for 30 min. Fluorescence polarization (FP) values were measured at 25°C using a Beacon 2000 Fluorescence Polarization System. Polarization values were normalized to the FP value measured at 0 nM RecG. Normalized FP was converted to normalized anisotropy. Experiments were performed in triplicate, and the data were fit to a one site binding model (, where X is ligand concentration, Y is normalized anisotropy, Bmax is the maximum anisotropy, and KD is the dissociation constant) using GraphPad Prism Software.
Figure 2. RecG binds directly and specifically to the SSB-Ct. (A) Fluorescence anisotropy binding isotherms for RecG binding to SSB-Ct (black), SSB113 (violet), SSBΔF (blue), or SSB IDL (green) peptides. Peptide sequences are listed in parentheses with * representing an N-terminal 6-FAM label. Anisotropy values are normalized to the reading at 0 μM RecG. […] (B–E) ITC analysis of RecG/SSB binding. Thermograms (top) and binding isotherms (bottom) of titrations of (B) full-length SSB, (C) SSB-Ct peptide, (D) SSBΔF or (E) SSBΔF peptide into RecG solutions.
Two models explaining how RecG interacts with SSB have been proposed - RecG could interact with the SSB-Ct ([29]) or RecG could interact with the IDL ([48],[49]). To begin testing each model, we used an equilibrium fluorescence anisotropy assay to measure RecG binding to fluorescently labeled SSB-Ct or IDL peptides (Figure 2). Titration of RecG with the SSB-Ct peptide led to an increase in fluorescence anisotropy, which occurs when protein binding slows the tumbling rate of a labeled peptide ([90]). […] KD values in the low micromolar range are typical for SSB/SIP complexes ([10],[12–14],[19],[23]). […]

[2] = system: SSB-interacting proteins (SIPs); conditions: cited from earlier work
Text: Most SSB-interacting proteins (SIPs) studied to date appear to share a conserved mode of SSB recognition in which they dock onto the SSB-Ct. Several SIPs have been co-crystalized with SSB-Ct peptides and their SSB-binding pockets have been validated in biochemical and/or genetic studies ([10],[12],[19],[20],[35]). SSB-Ct binding pockets have also been successfully predicted through computational methods ([36–39]). […] However, structural data ([31],[36],[108]) and predictions ([80]) reveal that the IDL is unstructured, and the length of IDLs across bacterial species varies greatly ([41]). […] Similarly, SSB fluorescent fusion proteins where GFP ...

[3] = system: E. coli ssb mutant strains (ssbΔ151–166, ssbΔ139–164, ssbΔ130–166); assay: DNA damage sensitivity spot plate assay of ssb IDL deletion strains; type: cell-based; conditions: ssbΔ151–166, ssbΔ139–164 and ssbΔ130–166 versus MG1655; LB plates, 37°C overnight
Protocol: MG1655, recG, and ssb IDL mutant strains were tested for sensitivity to UV light, ciprofloxacin, or mitomycin C. A ΔrecA strain (EAW20) was used as a sensitive control in the ssb IDL experiments. Overnight cultures set in biological triplicate were used to inoculate fresh LB. Cells were grown at 37°C with shaking to an OD600 nm of 0.2 and serially diluted 10-fold in 1 × PBS. Ten μl of each dilution was spotted onto square LB agar plates (for UV) or LB plates containing DNA damaging agents (ciprofloxacin or mitomycin C) poured fresh and kept in the dark. UV sensitivity plates were exposed to shortwave light (254 nm) using a Spectrolinker XL-1000 UV crosslinker (Spectronics Corp) and incubated at 37°C overnight in the dark. Plates were imaged on an iBright Imaging System. […] Briefly, dilutions of each strain were plated onto an LB plate exposed to 0, 50 or 100 J/m^2. Plates were incubated under foil at 37°C overnight, and colonies were counted to obtain colony forming units (CFU)/ml and percent relative survival values. […]
(A) Spot plate assay showing growth of 10-fold serially diluted MG1655 (wildtype ssb), ΔrecA, ssbΔ151–166, ssbΔ139–164, ssbΔ130–166, and ssbΔ120–166 strains exposed to varying UV (top), ciprofloxacin (center), or mitomycin C (bottom) doses. (B) Quantification of strain UV percent survival relative to CFU/ml of the strain at no UV exposure.

[4] = molecular target: T2, RecG DNA helicase, wildtype (E. coli, UniProt P24230 1-693); assay: ITC; SSB proteins or unlabeled peptides injected into RecG in the cell; 20 mM Tris-HCl pH 8.0, 150 mM NaCl, 10% glycerol, 1 mM EDTA, 1 mM β-mercaptoethanol; 25°C; one-site model; concentrations as monomers; conditions: both partners purified
T2 construct: RecG DNA helicase, E. coli, expressed from overexpression plasmid pEAW111; No tag is mentioned; also called WT RecG; source: E. coli STL2669/pT7pol26 with pEAW111, purified (ammonium sulfate, DEAE, Source 15Q, Source 15S)
T2 sequence (looked up): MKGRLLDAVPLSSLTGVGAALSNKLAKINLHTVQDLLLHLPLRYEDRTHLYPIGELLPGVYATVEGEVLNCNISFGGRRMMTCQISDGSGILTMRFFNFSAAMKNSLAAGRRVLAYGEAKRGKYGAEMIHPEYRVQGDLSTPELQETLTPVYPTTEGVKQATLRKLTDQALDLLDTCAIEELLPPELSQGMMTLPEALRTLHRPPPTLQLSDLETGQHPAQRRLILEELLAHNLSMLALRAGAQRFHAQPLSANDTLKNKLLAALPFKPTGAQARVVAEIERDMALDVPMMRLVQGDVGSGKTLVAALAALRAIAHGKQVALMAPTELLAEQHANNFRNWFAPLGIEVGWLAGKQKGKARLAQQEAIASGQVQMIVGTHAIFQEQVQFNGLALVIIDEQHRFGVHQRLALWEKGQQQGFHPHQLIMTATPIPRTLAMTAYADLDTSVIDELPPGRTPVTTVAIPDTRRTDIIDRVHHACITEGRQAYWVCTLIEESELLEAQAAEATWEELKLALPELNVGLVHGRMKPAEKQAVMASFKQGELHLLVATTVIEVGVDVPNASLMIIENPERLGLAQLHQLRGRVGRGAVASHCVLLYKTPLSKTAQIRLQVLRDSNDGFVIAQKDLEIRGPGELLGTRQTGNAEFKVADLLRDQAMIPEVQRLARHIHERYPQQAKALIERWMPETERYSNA

[5] = molecular target: ΦX174 RF I DNA; assay: DNA-dependent ATP hydrolysis assay (coupled spectrophotometric) of RecG proteins; type: biochemical; conditions: 150 nM RecG, 3 mM ATP, 37°C, pH 7.6, triplicate
Protocol: ATPase rates for wildtype and variant RecG proteins were determined using a coupled spectrophotometric assay ([86]). ATP hydrolysis reactions were conducted with 150 nM RecG in 1 × RecA buffer, supplemented with 1 mM DTT, 2.2 mM phosphor(enol)pyruvate, 10 units/ml pyruvate kinase, 10 units/ml lactate dehydrogenase, 2 mM NADH, and 3 mM ATP with varying concentrations of ΦX174 RF I (New England Biolabs) DNA at 37°C. DNA concentrations are represented in μM nucleotides (nt). A380 nm measured the conversion of NADH into NAD^+. Measurements were taken every 20–40 s on a Cary UV-Vis spectrophotometer. ATP hydrolysis rates were calculated by dividing the slope of A380 nm measurements over time over the linear region by ε380 nm = 1.21 mM^−1 cm^−1 for NADH and the cell path length (1 cm).
To more rigorously and quantitatively test the RecG HD2/SSB-Ct binding model, a RecG variant in which one of the putative SSB-binding residues is altered (RecG R474E) was purified and tested for binding to the SSB-Ct peptide and to full-length SSB in vitro. This variant was chosen because of the predicted interaction of the R474 side chain with the alpha-carboxyl group of SSB-Ct C-terminal Phe (Figure 3A). Analogous interactions have proven to be essential points of contact in other SIPs ([10],[19]). […] ATPase activity of RecG R474E was indistinguishable from that of wildtype RecG, with values for both maximal ATPase rates and the DNA concentrations required for 50% stimulation (KDNA) within error between the two proteins (Figure 4B and Table 2). Thus, we concluded that the RecG R474E variant was properly folded. To further examine the effect of the R474E sequence change, we also used ITC to measure RecG R474E binding to either the SSB-Ct or to full-length SSB. Binding was not detected in either titration (Figure 4C).
Figure 4.
We first measured binding to the SSB-Ct. […] RecG R95A binding to the SSB-Ct was expected since our experiments had shown that the peptide bound at a site in the RecG HD2 domain. […] This difference could be due to compromised DNA binding in the R95A variant. Arg95 is located on the DNA binding surface of the RecG wedge domain ([74]), and changing adjacent residues Phe96 or Phe97 to Ala results in drastic reductions in DNA binding and unwinding activity ([91]).

[6] = system: SSB; conditions: S. cerevisiae pJ69-4a; Gal4 BD-RecG (variant) with Gal4 AD-SSB; SD His- and Ade-deficient plates, 30°C, 4–5 days
Protocol: SSB, RecG or RecG variants were N-terminally fused to the DNA binding domain (pGBD) or activation domain (pGAD) of the Gal4 transcription factor. Resulting plasmids (Supplementary Table S3) were transformed ([84]) in pairs into Saccharomyces cerevisiae strain pJ69-4a ([85]) and selected for on synthetic dextrose (SD) Leu- and Trp-deficient plates. Transformants were inoculated into SD Leu- and Trp-deficient liquid medium and grown at 30°C overnight rotating. Saturated overnight cultures were diluted to an OD600 nm of 1.0 in 2% glucose and serially diluted 10-fold in 2% glucose. Dilutions were spotted (10 μl) onto SD His- and Ade-deficient plates and grown at 30°C for 4–5 days. Plates were imaged on a Fotodyne gel doc. Site-directed mutagenesis of RecG in pGBD was performed by in vivo assembly mutagenesis ([78]) of pEAW1156.
A fourth charge-reversal variant of R484 was also tested as a control to determine whether an electrostatic change that is near, but not in, the putative SSB binding site would alter RecG binding to SSB. A yeast two-hybrid assay was used as an initial method to screen several RecG variants for interaction with SSB. In the two-hybrid assay, yeast were transformed with plasmids encoding SSB and RecG fused to the Gal4 activation and binding domains, respectively, and the RecG/SSB interaction was assessed by selecting for growth on selective medium plates. […]

[7] = system: SSB; conditions: cited from earlier work
Text: In contra ... || To directly test whether the proposed RecG wedge domain IDL binding site is important for interaction with SSB, we purified a RecG R95A variant and measured its activity in vitro. […] We first measured binding to the SSB-Ct.

Molecule: CC[C@H](C)[C@H](NC(=O)[C@H](CC(=O)O)NC(=O)[C@H](CC(=O)O)NC(=O)[C@H](CC(=O)O)NC(=O)[C@H](Cc1ccccc1)NC(=O)[C@H](CC(=O)O)NC(=O)[C@H](CCSC)NC(=O)[C@H](Cc1c[nH]c2ccccc12)NC(=O)c1ccc2c(c1)C1(OC2=O)c2ccc(O)cc2Oc2cc(O)ccc21)C(=O)N[C@@H](CO)C(=O)N[C@@H](Cc1ccccc1)C(=O)O [SSB113 peptide] (6FAM-WMDFDDDISF-OH)
- Kd [1]: 23 ± 3.1 µM

Molecule: SSBΔF: SSB protein variant lacking the C-terminal-most Phe residue
- interaction with SIPs, in words (SSB-Ct deletions) ([2]; in vitro): eliminates interactions between SSB and SIPs in vitro

Molecule: SSB113 protein: SSB with a Ser for the penultimate Pro of the SSB-Ct (ssb-113 mutation)
- affinity for SIPs, in words ([2]; SSB113): greatly reduced affinity for SIPs

Molecule: O=C(O)c1cn(C2CC2)c2cc(N3CCNCC3)c(F)cc2c1=O [ciprofloxacin]
- DNA damage sensitivity of ssb IDL deletion strains, in words [3]: no change in DNA damage sensitivity compared to MG1655

Molecule: H-WMDFDDDIP [SSBΔF peptide]
- Kd ([1]; read-out: FP K D, WT RecG, fluorescence anisotropy, 10 nM N-terminal 6-FAM peptide, 0.2 M potassium glutamate, 25 mM Tris-acetate pH 7.6, 10 mM magnesium acetate, 30 min at room temperature, read at 25°C, one site fit, triplicate): > 30 µM

Molecule: CO[C@@]12[C@H](COC(N)=O)C3=C(C(=O)C(C)=C(N)C3=O)N1C[C@@H]1N[C@@H]12 [mitomycin C]
- DNA damage sensitivity of ssb IDL deletion strains, in words [3]: no change in DNA damage sensitivity compared to MG1655

B1: SSB-Ct peptide, unlabeled (peptide)
peptide: WMDFDDDIPF
notes: N-terminal tryptophan residue added for quantification; C-terminal tip of SSB, E. coli; source: synthetic peptide (Genscript)
- Kd [4]: 3.9 ± 0.8 µM
- dH [4]: -4 ± 0.5 kcal/mol
- stoichiometry N [4]: 0.92 ± 0.08

B2: RecG R474E: RecG Arg474Glu charge-reversal variant, HD2 domain (protein)
chain: T2 sequence (looked up) with R474E
modifications: left off: Gal4 DNA-binding domain, N-terminal, kept
- K DNA (DNA concentration required for 50% stimulation of ATPase) [5]: 39.9 ± 2.9 μM nt
- V max of ATP hydrolysis [5]: 363 ± 13 µM/min
- yeast two-hybrid growth on selective medium [6]: failed to grow

B3: RecG R95A: RecG wedge domain variant (protein)
chain: T2 sequence (looked up) with R95A
modifications: left off: Gal4 DNA-binding domain, N-terminal, kept
notes: RecG wedge domain variant
- K DNA (DNA concentration required for 50% stimulation of ATPase) [5]: 18.5 ± 4.9 μM nt
- V max of ATP hydrolysis [5]: 127 ± 11 µM/min
- reduction in co-purification with SSB ([7]; previous study): 24 fold
- binding to SSB in co-purification assay, in words ([7]; prior results): severely reduced binding to SSB
- yeast two-hybrid growth on selective medium [6]: grew on the selective medium
